Assay results as given in article PMC8100176, “Cryo-EM structure of ABCG5/G8 in complex with modulating antibodies” (Communications Biology, 2021).

B1: monoclonal antibody 2E10 against ABCG5/G8 (antibody, V domains shown)
VH: QVHLQQSGAELVRPGTSVKMSCKAAGYTFTYWWIGWLKQRPGHGLEWIGDFFPVSGHTNFNEKFRDKATLTADTSSSTAYMQLNSLTSEDSAIYYCARKQDSSGPLYAMDYWGQGTSVTVSS
VL: DIQMTQSSSYLSVSLGGRVTITCKASDHINNWLAWYQQKPGNAPRLLISAATSLETGVPSRFSGSGSGKDYTLSIISLQTEDVATYYCQQYWSTPFTFGSGTKLEIK
notes: the Fab part of the heavy chain is in PDB 7JR7 (as the heavy chain of m4); as the light chain of m4, in PDB 7JR7; Mouse IgG (captured by goat anti-mouse IgG Fc); also called mAb 2E10; source: produced at the antibody core facility at Oregon Health Science University
B2: Fab fragment of monoclonal antibody 2E10 (Fab, V domains shown)
VH: B1 VH
VL: B1 VL
notes: also called Fab 2E10; source: papain cleavage of mAb 2E10, purified by gel filtration chromatography
B3: monoclonal antibody 11F4 against ABCG5/G8 (antibody, V domains shown)
VH: DVQLQESGPGLVKPSQSLSLTCTITGYSITSDYAWNWIRQFPGNKLEWMGYISYSGTTYYNPSLKSRFSITRDTSRNQFFLQFNSVTTEDTGTYFCARMITTVYYFDYWGQGTTLTVSS
VL: QIVLTQSPTIMSASLGERVTMTCTASSSASSSYLHWYQQKPGSSPKLWIYSTSNLASGVPARFSGSGSGTSYSLTISNMEAEDAATYYCHQHHRSPPTFGAGTKLELK
notes: the Fab part of the heavy chain is in PDB 7JR7 (as the heavy chain of m5); as the light chain of m5, in PDB 7JR7; Mouse IgG (captured by goat anti-mouse IgG Fc); also called mAb 11F4; source: produced at the antibody core facility at Oregon Health Science University
B4: Fab fragment of monoclonal antibody 11F4 (Fab, V domains shown)
VH: B3 VH
VL: B3 VL
notes: also called Fab 11F4; Fab11F4; source: papain cleavage of mAb 11F4, purified by gel filtration chromatography

Legend:
[1] = biological target: T1, ABCG5/G8 heterodimer (ATP-binding cassette transporters ABCG5 and ABCG8), human, full length (Homo sapiens, UniProt Q9H222;Q9H221); test: SPR; Biacore T200, CM5 chip with goat anti-mouse IgG Fc antibody capturing the mouse anti-ABCG5/G8 mAbs (~100 Ru); ABCG5/G8 in DDM micelles, multicycle kinetics, 6 pM to 100 nM, 50 µL/min, 180 s association, 1800 s dissociation (the legend of Fig. 1 says instead that mAb was injected over immobilized ABCG5/G8); details: both partners purified
T1 construct: ABCG5, human, full length; followed by a TEV protease cleavage site and a 12 His tag on the C-terminus; ABCG8, human, full length; In DDM micelles for SPR and the ATPase assay; in saposin A-based nanodiscs for cryo-EM; also called ABCG5/ABCG8; source: Pichia pastoris (ATUM-9016 strain), membranes extracted with DDM, purified (HisTrap, Superdex 200)
T1 sequence (Q9H222 whole entry, chain 1 of 2): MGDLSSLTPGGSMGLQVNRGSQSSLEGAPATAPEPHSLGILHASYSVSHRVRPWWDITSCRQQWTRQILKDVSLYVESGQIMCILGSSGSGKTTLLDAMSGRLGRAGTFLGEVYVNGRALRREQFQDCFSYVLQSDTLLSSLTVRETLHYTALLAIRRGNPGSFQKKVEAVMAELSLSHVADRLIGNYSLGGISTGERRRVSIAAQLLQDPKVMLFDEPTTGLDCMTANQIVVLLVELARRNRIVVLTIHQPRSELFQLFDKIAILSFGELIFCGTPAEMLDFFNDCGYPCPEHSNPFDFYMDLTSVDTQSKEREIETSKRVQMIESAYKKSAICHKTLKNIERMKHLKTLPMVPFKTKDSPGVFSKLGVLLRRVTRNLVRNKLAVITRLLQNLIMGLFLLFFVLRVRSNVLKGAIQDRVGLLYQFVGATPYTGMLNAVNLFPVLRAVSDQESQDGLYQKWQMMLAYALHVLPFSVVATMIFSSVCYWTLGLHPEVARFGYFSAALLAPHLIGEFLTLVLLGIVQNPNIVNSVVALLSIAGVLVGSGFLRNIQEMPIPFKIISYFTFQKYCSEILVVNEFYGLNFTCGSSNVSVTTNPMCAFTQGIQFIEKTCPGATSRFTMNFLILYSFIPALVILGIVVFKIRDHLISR
T1 sequence (Q9H221 whole entry, chain 2 of 2): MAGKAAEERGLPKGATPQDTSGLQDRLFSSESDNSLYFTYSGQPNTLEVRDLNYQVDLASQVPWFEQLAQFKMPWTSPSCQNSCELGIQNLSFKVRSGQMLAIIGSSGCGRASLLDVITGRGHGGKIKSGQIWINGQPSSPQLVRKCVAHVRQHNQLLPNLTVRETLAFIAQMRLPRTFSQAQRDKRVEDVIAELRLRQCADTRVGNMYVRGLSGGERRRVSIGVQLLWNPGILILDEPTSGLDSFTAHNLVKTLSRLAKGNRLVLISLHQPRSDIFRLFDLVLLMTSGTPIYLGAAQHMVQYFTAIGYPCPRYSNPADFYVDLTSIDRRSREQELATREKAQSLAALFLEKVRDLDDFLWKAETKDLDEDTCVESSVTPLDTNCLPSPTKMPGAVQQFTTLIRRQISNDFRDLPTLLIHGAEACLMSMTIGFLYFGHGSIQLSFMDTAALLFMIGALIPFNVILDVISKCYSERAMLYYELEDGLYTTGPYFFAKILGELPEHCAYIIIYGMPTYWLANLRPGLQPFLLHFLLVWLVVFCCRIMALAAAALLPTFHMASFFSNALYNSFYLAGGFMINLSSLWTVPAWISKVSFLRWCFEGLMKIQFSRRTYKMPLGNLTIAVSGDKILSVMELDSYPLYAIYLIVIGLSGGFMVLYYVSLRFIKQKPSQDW

[2] = biological target: T2, ABCG8 (ATP-binding cassette transporter G8), human, full length, half transporter of the ABCG5/G8 heterodimer (human, UniProt Q9H221); test: cryo-EM structure; ternary complex of ABCG5/G8 with Fab 2E10 and Fab 11F4, purified by size exclusion, in saposin A-based nanodiscs; nucleotide-free, inward-facing; 3.3 Å; details: both partners purified
T2 construct: ABCG8, human, full length; Same chain as the second chain of m1; written alone for the contacts seen in the structure; First residue seen in the cryo-EM structure is Phe28; source: Pichia pastoris (ATUM-9016 strain), expressed with ABCG5 and purified as the heterodimer (HisTrap, Superdex 200)
T2 sequence (Q9H221 whole entry, one chain of several): as the sequence (Q9H221 whole entry, chain 2 of 2) above

Binder	Kd [1] [nM]	binding result [2]
B1	0.11	–
B2	–	binds
B3	0.12	–
B4	–	binds
